PMC6386614

Target: T1, hnRNP H1-His6 (UniProt P31943 1-449)
T1 sequence: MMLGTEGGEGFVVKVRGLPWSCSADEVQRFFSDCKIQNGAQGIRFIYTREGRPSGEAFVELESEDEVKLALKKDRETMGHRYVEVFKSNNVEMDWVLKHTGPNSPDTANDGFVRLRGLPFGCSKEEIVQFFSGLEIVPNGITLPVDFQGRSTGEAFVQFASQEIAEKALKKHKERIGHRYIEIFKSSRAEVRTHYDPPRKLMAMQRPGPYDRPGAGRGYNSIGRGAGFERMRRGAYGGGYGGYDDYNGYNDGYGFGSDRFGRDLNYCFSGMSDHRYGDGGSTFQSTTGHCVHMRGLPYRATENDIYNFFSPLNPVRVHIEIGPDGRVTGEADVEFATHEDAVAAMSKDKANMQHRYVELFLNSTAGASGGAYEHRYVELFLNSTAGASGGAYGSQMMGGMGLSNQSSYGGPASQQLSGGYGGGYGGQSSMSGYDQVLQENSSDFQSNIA
Test: EMSA

B1: r(G4C2)8 (32P) (structured_RNA)
RNA: GGGGCCGGGGCCGGGGCCGGGGCCGGGGCCGGGGCCGGGGCCGGGGCC
Kd: 65 ± 26 nM
